The values that follow come from the supplement of paper PMC10567573.

± gives the standard deviation.

The series in a line: protein stability index of a GFP-peptide fusion (GPS, HEK-293T) (PSI 1-6); higher = more stable.
Where [1] appears, read: treatment: DMSO, c terminus: a fixed tail appended.
The mark [2] stands for this setting: treatment: MLN4924 1 uM, 8 h, c terminus: a fixed tail appended.
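Note: 24-mer peptide tiles fused after GFP, lentivirally expressed, FACS-sorted into six equal bins by GFP/DsRed ratio, decoded by Illumina sequencing, PSI is the read-weighted mean bin number.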

In the case of CSRTTGYQILTLEKDQEQVVMNLD [GMCL1], the protein stability index reads like this: under setting [1], 3.6 ± 0.52; under setting [2], 3.43 ± 0.34.

As for CTDKENALKLFPVQPCSAVHLLLK [FAM189A2], the protein stability index reads like this: under setting [1], 2.58 ± 0.23; under setting [2], 2.7 ± 0.43.

In the case of CTGITRLQRWCRAKHMGLEPPPEV [POLD4], the protein stability index by setting is: under setting [1], 2.49 ± 0.31; under setting [2], 2.96 ± 0.31. With CTLETTVHASGWNKILVPLVLLRQ [BCL2L13], the protein stability index by setting is: under setting [1], 2.61 ± 0.38; under setting [2], 2.38 ± 0.43. Consider CVLTTPCLTQSTAAPAVRASSSPV [SLA], for which the protein stability index is, setting by setting: under setting [1], 3.47 ± 0.13; under setting [2], 3.49 ± 0.14. For CVNGDVDKPSEPASEEGSESEGSE [SMG5], in that order: 5.58 ± 0.23 and 5.51 ± 0.14. On to DAMQLNDKWQGLCWPMMDFLRCVT [CMTM3], for which the protein stability index runs as follows: under setting [1], 2.22 ± 0.38; under setting [2], 2.26 ± 0.14. The matching figures for DEEVQRKREMILKRKEEEALKDSL [VDR]: 5.35 ± 0.22 and 5.5 ± 0.19. The matching figures for DEGASAGQGPKPEADSQEQGHPQT [GAGE1]: 5.71 ± 0.1 and 5.48 ± 0.37. The matching figures for DEKYGVPSLEELGFDTDGLSSAVW [CRY1]: 3.65 ± 0.22 and 3.86 ± 0.45. As for DFPEEDDPTNWLRCYYYEDTISTI [NCF4], the protein stability index is, setting by setting: under setting [1], 3.28 ± 0.25; under setting [2], 3.2 ± 0.22.

With DGGLLSGNEKITMQNLNDRLASYL [KRT15], the protein stability index was 3.12 ± 0.16 under setting [1] and 3.09 ± 0.2 under setting [2].

Take DGLFDNMPDYMILQELKKLKNSNY [PPTC7]: the protein stability index was 2.57 ± 0.3 under setting [1] and 2.85 ± 0.64 under setting [2]. For DHEHEEADLELSLPECLEYEEEFD [GNAS], in that order: 5.55 ± 0.46 and 5.53 ± 0.22. For the sequence DHGVPEHPTPFLAFLRRVKTCNPP [PTPRD], the protein stability index is, setting by setting: under setting [1], 3.16 ± 0.042; under setting [2], 3.16 ± 0.25. Take DHYQRVKREREKEDIALNKHRSRR [RHOBTB1]: the protein stability index runs as follows: under setting [1], 4.23 ± 0.25; under setting [2], 4.38 ± 0.21. For the sequence DIALNKHRSRRKWCFWNSSPAVA [RHOBTB1], the protein stability index came out at 2.46 ± 1.4 (treatment: DMSO, c terminus: native) and 2.87 ± 1.8 (treatment: MLN4924 1 uM, 8 h, c terminus: native). Consider DIMETSGWKSMIQSHPHLVAEAFR [SPOPL], for which the protein stability index reads like this: under setting [1], 2.49 ± 0.37; under setting [2], 2.68 ± 0.54. For DIWSTACMAFELATGDYLFEPHSG [SRPK2], in that order: 3.2 ± 0.24 and 3.39 ± 0.47. The matching figures for DKERFTTLVQDLANAFQQEAQTSG [CHIT1]: 4.19 ± 0.066 and 4.26 ± 0.12. For DKKKELQELNELFKPVVAAQKISK [ZC3H15], in that order: 4.39 ± 0.32 and 4.43 ± 0.17. Consider DKRGETTSASLLNAGLSHTEYQIV [SLC2A12], for which the protein stability index stood at 3.69 ± 0.17 under setting [1] and 3.91 ± 0.26 under setting [2]. As for DLFKSFPGPMDWVPRYTGVAPQDQ [ADAMTS4], the protein stability index was 3.19 ± 0.29 under setting [1] and 3.21 ± 0.2 under setting [2]. For the sequence DLHCVLVTNPHSSQWKDPALSQLI [GADD45A], the protein stability index by setting is: under setting [1], 2.23 ± 0.26; under setting [2], 2.3 ± 0.16.

With DLINKMLTINPAKRITASEALKHP [CAMK2D], the protein stability index by setting is: under setting [1], 2.49 ± 0.31; under setting [2], 2.64 ± 0.32. For DLRKHRRKLLSPVSREENREDKAT [PPFIA4], the protein stability index is 4.52 ± 0.18 under setting [1] and 4.84 ± 0.3 under setting [2]. For DMEKILEIIRVILKLYEQWKNFDE [CCNC], in that order: 2.47 ± 0.2 and 2.66 ± 0.42.

For DMWSIGVITYILLSGASPFLGETK [DAPK3], the protein stability index is, setting by setting: under setting [1], 3.15 ± 0.3; under setting [2], 2.97 ± 0.36. The matching figures for DNEGNSALHIIVQYNRPISDFLTL [FEM1B]: 3.06 ± 0.9 and 2.33 ± 0.17.

Regarding DNPPTFSQVSYFTYIPENNARGAS [PCDHGA10], the protein stability index reads like this: under setting [1], 3.44 ± 0.46; under setting [2], 3.49 ± 0.49. As for DPDINMHPFFFALGKILSVELGKQ [FADS1], the protein stability index by setting is: under setting [1], 2.46 ± 0.61; under setting [2], 2.38 ± 0.59. For DPDPDPEPAGGSRPGPAVPGLRAL [CMTM3], in that order: 4.92 ± 0.28 and 4.68 ± 0.11. For the sequence DPERRPSAMALVKHSVLLSASRKS [WEE1], the protein stability index turned out to be 4.15 ± 0.3 under setting [1] and 4.05 ± 0.36 under setting [2].

Turning to DPLLLILSFLDYRDLINCCYVSRR [FBXO3], the protein stability index reads like this: under setting [1], 2.91 ± 0.74; under setting [2], 3.05 ± 0.82. For DPSGKGKGKAGRVDLVDESGYVSG [TPPP], in that order: 5.1 ± 0.42 and 5.27 ± 0.16.

As to DQAGGEGKHITVFKTYISPWERAM [MYOZ1], the protein stability index runs as follows: under setting [1], 2.91 ± 0.27; under setting [2], 2.84 ± 0.39. For DQQNPTLGETPENSNLEEPLNPKP [ZNF449], the protein stability index reads like this: under setting [1], 5.6 ± 0.19; under setting [2], 5.29 ± 0.23. The matching figures for DQSKLAGLLDLNNAILQLVKKYKS [ESRRG]: 2.4 ± 0.26 and 2.31 ± 0.5. As for DRSDYFAAWGARVFSFGKHYWELD [TRIM43], the protein stability index under setting [1] was 2.14 ± 0.44 and the protein stability index under setting [2] came out at 2.15 ± 0.57. For DSSIIRTTQDLFAINRDTAFPGAS [RHOBTB3], in that order: 3.91 ± 0.23 and 3.94 ± 0.23. DSSMILTVPGQALACGSNRFNKLG [NEK8] came in with a protein stability index under setting [1] of 3.29 ± 0.17 and a protein stability index under setting [2] of 3.2 ± 0.22.

DSVLERWVNDPQRMDKRTLALLVL [GOLPH3L]: the protein stability index is 2.21 ± 0.28 under setting [1] and 2.31 ± 0.28 under setting [2]. For the sequence DTDRDGYISHRELGDCMRTLGYMP [CABP4], the protein stability index under setting [1] turned out to be 3.41 ± 0.22 and the protein stability index under setting [2] came to 3.47 ± 0.26.

For the sequence DTHSWKSELQREMEALAAETNLLL [TEKT4], the protein stability index is, setting by setting: under setting [1], 3.25 ± 0.33; under setting [2], 3.59 ± 0.44. For DTLADDVPGHQTPSDLDQFSDSSL [LURAP1L], the protein stability index was 5.44 ± 0.2 under setting [1] and 5.366 ± 0.053 under setting [2]. Take DVGCISVTVPSMLSRLLSRKRAVP [OR3A1]: the protein stability index by setting is: under setting [1], 2.71 ± 0.26; under setting [2], 2.85 ± 0.19. The matching figures for DVLNDAIFDEDHDEMVIVKDIDMF [GCH1]: 3.5 ± 0.15 and 3.62 ± 0.2.

For DWGRTALHYAAASDMDRNKTILGN [ANKRD44], the protein stability index is, setting by setting: under setting [1], 3.35 ± 0.32; under setting [2], 3.35 ± 0.17. The matching figures for DYLCISFEYSTIKCRDLSALMHEL [BTBD10]: 2.5 ± 1.6 and 2.73 ± 1.

In the case of DYRMELAQAGTPAPTKPHDYRQEQ [SPAG8], the protein stability index came to 5.11 ± 0.088 under setting [1] and 5.16 ± 0.14 under setting [2]. For EAEEEKGEKEEEDKDDEEKPKIED [HSP90AB1], the protein stability index worked out at 5.55 ± 0.35 under setting [1] and 5.6 ± 0.38 under setting [2]. The matching figures for EALVNRLWKRMDKLEAEKRILQEK [CCDC6]: 2.93 ± 0.08 and 3.6 ± 0.24. Consider EAPASVVPFVRVKREREVDEDSEP [USP39], for which the protein stability index was 5.51 ± 0.17 under setting [1] and 5.51 ± 0.2 under setting [2]. The matching figures for EARICRLLKHSNIVRLHDSISEEG [CAMK2B]: 3.32 ± 0.41 and 3.46 ± 0.28.

For the sequence EARKYASNLLKAGFIRHTVNKITF [DVL3], the protein stability index by setting is: under setting [1], 2.31 ± 0.48; under setting [2], 2.16 ± 0.18.

EASRLNIERMKQIYQQLSRYRGLG [CRY1]: the protein stability index reads like this: under setting [1], 2.48 ± 0.26; under setting [2], 2.37 ± 0.3. In the case of ECGKRFLRSSDLYRHQRLHTGERP [ZNF449], the protein stability index under setting [1] was found to be 3.08 ± 0.26 and the protein stability index under setting [2] was found to be 3.22 ± 0.24. The matching figures for ECQLTHSHPACPLEFAYYFRPGHL [ZSWIM9]: 2.57 ± 0.036 and 2.59 ± 0.47. For EDGKRCVAVDYCASENHGCEHECV [MATN2], in that order: 4.92 ± 0.14 and 4.88 ± 0.7.

Regarding EDLATAYNNRGQIKYFRVDFYEAM [TTC32], the protein stability index under setting [1] worked out at 2.21 ± 0.17 and the protein stability index under setting [2] was 2.23 ± 0.32. Take EDLTPEDDMPIGRNVLELNDVRQS [PTPRD]: the protein stability index is, setting by setting: under setting [1], 5.13 ± 0.3; under setting [2], 5.19 ± 0.14. Consider EEAAFPGRRVNAKMPVYSGSRPAC [ELOA2], for which the protein stability index is, setting by setting: under setting [1], 4.01 ± 0.093; under setting [2], 3.98 ± 0.27. Sequence EEAGSQENHPQESKGQPRSQEESE [CHGB] gave a protein stability index under setting [1] of 5.57 ± 0.25 and a protein stability index under setting [2] of 5.64 ± 0.17. For EEAVPEEEGPTVVLNPHPSLGYKE [CHGA], the protein stability index by setting is: under setting [1], 5.33 ± 0.28; under setting [2], 5.32 ± 0.38. Regarding EEDNWDPELMEHTEAESEQEGSSG [TEX19], the protein stability index under setting [1] turned out to be 5.7 ± 0.26 and the protein stability index under setting [2] was 5.65 ± 0.16. For EEEENRDSQQPGKRRKDSEEEAAS [FANCE], in that order: 5.78 ± 0.21 and 5.73 ± 0.2. EEFLSAMQSARGPTPSSPLPSVPV [PLEKHN1] displayed a protein stability index under setting [1] of 4.15 ± 0.27 and a protein stability index under setting [2] of 4.14 ± 0.19. On to EEGDEQQRLLNTPRRKKLKSTSKY [GMCL1], for which the protein stability index is, setting by setting: under setting [1], 4.75 ± 0.12; under setting [2], 4.9 ± 0.39.

For the sequence EEKADVLARGPLNQTALHLAAAHG [RIPK4], under setting [1], the protein stability index came out at 4.5 ± 0.17. Consider EEPVPRERDRDPCGGSGGGGGGGG [LURAP1L], for which the protein stability index was 5.69 ± 0.29 under setting [1] and 5.67 ± 0.22 under setting [2].

In the case of EEQATKQFLEEINKWTVQYNVSPL [PTPN9], the protein stability index is 2.96 ± 0.54 under setting [1] and 3.15 ± 0.43 under setting [2]. The matching figures for EERKNEMTQVITRTQEEKLEHVRA [TRIM55]: 5.3 ± 0.21 and 5.54 ± 0.21.
